Assays:
[1] = molecular target: human CD21 on Raji cells (CD21+ human Burkitt's lymphoma cell line) (human) (UniProt P20023); experiment: flow cytometry on Raji cells, anti-mouse IgG-FITC
[2] = molecular target: human CD21 on Raji cells (CD21+ human Burkitt's lymphoma cell line) (human) (UniProt P20023); experiment: cell ELISA on Raji cells, anti-mouse IgG-AP
[3] = molecular target: human CD21 on Raji cells (CD21+ human Burkitt's lymphoma cell line) (human) (UniProt P20023); experiment: flow cytometry, competition: C3d beads 100:1 on Raji cells with 15 ng HB5
[4] = molecular target: human CD21 on Raji cells (CD21+ human Burkitt's lymphoma cell line) (human) (UniProt P20023); experiment: flow cytometry, competition: C3d beads 25:1 on Raji cells with 30 ng HB5
[5] = molecular target: human CD21 on Raji cells (CD21+ human Burkitt's lymphoma cell line) (human) (UniProt P20023); experiment: flow cytometry, competition: C3d beads 100:1 on Raji cells with 30 ng HB5
[6] = molecular target: human CD21 on Raji cells (CD21+ human Burkitt's lymphoma cell line) (human) (UniProt P20023); experiment: flow cytometry, competition: C3d beads 25:1 on Raji cells with 15 ng HB5
[7] = molecular target: human CD21 on Raji cells (CD21+ human Burkitt's lymphoma cell line) (human) (UniProt P20023); experiment: flow cytometry, competition: C3d beads 50:1 on Raji cells with 30 ng HB5
[8] = molecular target: human CD21 on Raji cells (CD21+ human Burkitt's lymphoma cell line) (human) (UniProt P20023); experiment: flow cytometry, competition: C3d beads 50:1 on Raji cells with 15 ng HB5
[9] = molecular target: recombinant soluble human CD21 (1-2)-Ig fusion protein (human) (UniProt P20023); experiment: direct ELISA, sCD21-coated wells, anti-mouse Ig kappa-AP
Sequence of recombinant soluble human CD21 (1-2)-Ig fusion protein (human) (P20023 21-148): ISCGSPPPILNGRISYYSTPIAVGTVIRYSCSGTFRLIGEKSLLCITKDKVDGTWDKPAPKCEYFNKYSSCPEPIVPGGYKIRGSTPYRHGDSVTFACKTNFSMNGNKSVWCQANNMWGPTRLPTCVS

[10] = molecular target: mouse Ig G lambda (isotype of the Ig fusion partner), coated on wells; experiment: direct ELISA, MoIg-coated control wells, anti-mouse Ig kappa-AP
[11] = molecular target: human CD21 on Raji cells (CD21+ human Burkitt's lymphoma cell line) (human) (UniProt P20023); experiment: flow cytometry, control BSA-coated microspheres on Raji cells, 100 microspheres per cell
[12] = molecular target: human CD21 on Raji cells (CD21+ human Burkitt's lymphoma cell line) (human) (UniProt P20023); experiment: flow cytometry, control BSA-coated microspheres on Raji cells, 25 microspheres per cell
[13] = molecular target: human CD21 on Raji cells (CD21+ human Burkitt's lymphoma cell line) (human) (UniProt P20023); experiment: flow cytometry, control BSA-coated microspheres on Raji cells, 50 microspheres per cell

Sequence of human CD21 on Raji cells (CD21+ human Burkitt's lymphoma cell line) (human) (P20023 21-1033): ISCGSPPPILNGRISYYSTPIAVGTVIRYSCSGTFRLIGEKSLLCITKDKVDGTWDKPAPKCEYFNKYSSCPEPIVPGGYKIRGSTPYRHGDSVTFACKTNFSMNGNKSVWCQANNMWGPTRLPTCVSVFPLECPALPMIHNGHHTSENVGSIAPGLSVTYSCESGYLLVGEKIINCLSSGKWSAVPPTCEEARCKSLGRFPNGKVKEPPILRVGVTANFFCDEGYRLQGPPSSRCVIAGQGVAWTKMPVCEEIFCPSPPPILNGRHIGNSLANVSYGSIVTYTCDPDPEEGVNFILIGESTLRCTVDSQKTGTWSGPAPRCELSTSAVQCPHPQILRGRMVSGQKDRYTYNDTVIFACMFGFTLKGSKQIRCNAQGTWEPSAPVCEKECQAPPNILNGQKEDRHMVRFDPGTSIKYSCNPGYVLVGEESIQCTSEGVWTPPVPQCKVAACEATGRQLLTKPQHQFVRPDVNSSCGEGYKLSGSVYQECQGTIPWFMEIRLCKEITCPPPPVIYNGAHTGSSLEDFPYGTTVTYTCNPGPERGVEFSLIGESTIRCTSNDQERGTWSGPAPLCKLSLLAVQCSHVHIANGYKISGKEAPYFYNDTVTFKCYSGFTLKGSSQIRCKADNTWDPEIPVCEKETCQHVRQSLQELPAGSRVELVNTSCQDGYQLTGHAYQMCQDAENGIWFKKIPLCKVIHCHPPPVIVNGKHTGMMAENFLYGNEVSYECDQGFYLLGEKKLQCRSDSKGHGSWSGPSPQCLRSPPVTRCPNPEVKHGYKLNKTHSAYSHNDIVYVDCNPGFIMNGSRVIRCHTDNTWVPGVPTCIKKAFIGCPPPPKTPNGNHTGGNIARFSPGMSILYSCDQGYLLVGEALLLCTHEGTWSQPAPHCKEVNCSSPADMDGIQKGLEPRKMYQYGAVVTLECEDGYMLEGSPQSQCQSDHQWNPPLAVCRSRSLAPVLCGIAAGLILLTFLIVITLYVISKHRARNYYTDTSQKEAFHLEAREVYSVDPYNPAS

anti-human CD21 mAb BE-5 (BioSource International) (antibody)
Mean Fluorescent Index (MFI) [1]: 85 MFI
OD 550 nm [2]: 0.546 OD 550 nm

mouse anti-human CD21 mAb HB5 (BD Pharmingen) (antibody)
% Cells Bound (by C3d beads in presence of mAb) [3]: 69.3%
% Inhibition by mAb [3]: 6.5%
% Cells Bound (by C3d beads in presence of mAb) [4]: 15.4%
% Inhibition by mAb [4]: 29.7%
Mean Fluorescent Index (MFI) [1]: 117 MFI
% Cells Bound (by C3d beads in presence of mAb) [5]: 67.2%
% Inhibition by mAb [5]: 9.4%
% Cells Bound (by C3d beads in presence of mAb) [6]: 19.4%
% Inhibition by mAb [6]: 11.8%
% Cells Bound (by C3d beads in presence of mAb) [7]: 39.8%
% Inhibition by mAb [7]: 20.5%
% Cells Bound (by C3d beads in presence of mAb) [8]: 42.4%
% Inhibition by mAb [8]: 15.3%

OKB7 (mouse anti-human CD21, Ortho Diagnostics) (antibody)
OD [9]: 0.44 OD
Mean Fluorescent Index (MFI) [1]: 123 MFI
OD [10]: 0.096 OD

BSA coated on 1 um fluorescent microspheres (from UniProt P02769 25-607)
% Cells Bound [11]: 22.6%
% Cells Bound [12]: 1.5%
% Cells Bound [13]: 6.83%

anti-human CD21 mAb Bly-4 (antibody)
OD 550 nm [2]: 1.17 OD 550 nm

Mouse IgG (control) (antibody)
OD 550 nm [2]: 0.072 OD 550 nm

— patent US20030077273A1
